Test results reported in patent US20140363427A1.

Assays:
[1] = substrate: F protein of RSV B-wash (strain 18537) (respiratory syncytial virus B, strain 18537) (UniProt P13843); experiment: cell-based or functional assay
[2] = substrate: F protein of RSV B-1 (respiratory syncytial virus B-1) (UniProt O36634); experiment: cell-based or functional assay
F protein of RSV B-1 (respiratory syncytial virus B-1), sequence (O36634 26-574): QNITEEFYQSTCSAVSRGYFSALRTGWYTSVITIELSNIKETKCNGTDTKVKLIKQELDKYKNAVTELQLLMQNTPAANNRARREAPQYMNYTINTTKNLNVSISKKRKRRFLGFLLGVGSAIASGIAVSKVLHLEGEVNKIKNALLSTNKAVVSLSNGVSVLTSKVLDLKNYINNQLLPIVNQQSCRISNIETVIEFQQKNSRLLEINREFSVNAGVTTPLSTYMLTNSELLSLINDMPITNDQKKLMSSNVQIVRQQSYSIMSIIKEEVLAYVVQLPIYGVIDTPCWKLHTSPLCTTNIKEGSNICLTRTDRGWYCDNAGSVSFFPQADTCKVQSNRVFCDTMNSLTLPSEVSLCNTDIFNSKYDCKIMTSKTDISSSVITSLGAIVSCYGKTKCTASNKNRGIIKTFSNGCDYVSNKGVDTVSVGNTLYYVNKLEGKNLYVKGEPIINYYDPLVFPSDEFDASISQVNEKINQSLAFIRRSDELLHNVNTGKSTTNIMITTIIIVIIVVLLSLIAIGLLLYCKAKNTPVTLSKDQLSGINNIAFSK

F protein of RSV B-wash (strain 18537) (respiratory syncytial virus B, strain 18537), sequence (P13843 26-574): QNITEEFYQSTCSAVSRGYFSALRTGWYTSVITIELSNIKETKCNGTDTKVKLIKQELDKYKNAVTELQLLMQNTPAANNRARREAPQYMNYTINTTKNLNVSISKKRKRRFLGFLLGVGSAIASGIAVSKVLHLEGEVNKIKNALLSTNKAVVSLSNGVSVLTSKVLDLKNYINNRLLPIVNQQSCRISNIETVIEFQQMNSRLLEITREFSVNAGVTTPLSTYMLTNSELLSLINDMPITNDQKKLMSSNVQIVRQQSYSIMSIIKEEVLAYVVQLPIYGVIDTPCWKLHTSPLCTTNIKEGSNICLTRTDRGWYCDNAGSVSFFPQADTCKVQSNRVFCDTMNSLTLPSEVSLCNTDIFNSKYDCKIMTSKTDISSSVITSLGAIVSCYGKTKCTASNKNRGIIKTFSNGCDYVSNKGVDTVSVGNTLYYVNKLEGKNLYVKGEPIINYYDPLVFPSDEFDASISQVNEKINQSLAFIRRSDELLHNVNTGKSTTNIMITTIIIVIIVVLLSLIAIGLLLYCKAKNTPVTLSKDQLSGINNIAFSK

B1: IgG form of 90D3 (antibody, V domains shown)
VH: QVQLVESGGGLVKPGGSLRLSCVGSGFTLKNYEMNWVRQAPGQGLQYISYISSSGNVVKYVDSVQGRFTISRDNAGNSLYLQMNNLRAEDTATYYCVRGFSIDKYDSSVDEYWGQGIAVTVSS
VL: AIRLTQSPSSLSASVGDRVSITCRASQSISNFLNWYQQKPGRAPKLLISAASSLQGGVPSRFSGSGSGTDFTLTISSLQPEDFATYYCQQTYISLYTFGQGTKLEIKR
B1 showed an ED50, plaque reduction, RSV B/wash [1] of 1.4 nM and an ED50, plaque reduction, RSV B-1 [2] of 1.4 nM.
